Laboratory results taken from article PMC12316982 (Nature Communications, 2025).

Assays:
Test in all cases: ELISA
Conditions in all cases: both partners purified
[1] = target: stabilized neuraminidase protein (sNAp) of A/Michigan/45/2015 (MI15, H1N1) (Influenza A virus A/Michigan/45/2015 …, UniProt A0A0X9QTS2, stabilised)
[2] = target: T1, NA of the influenza B-Victoria lineage virus B/Colorado/06/2017 (B/Vic CO17) (Influenza B virus B/Colorado/06/2017 …, UniProt A0A1X9RX69, strain)
T1 construct: not shown: His6, N-terminal, kept

[3] = target: stabilized neuraminidase protein (sNAp) of A/New Caledonia/20/1999 (NC99, H1N1) (Influenza A virus A/New …, UniProt Q7TG96, stabilised)

Measured: binding result

B1: NCS.1 (human IgG1) (antibody, V domains shown)
VH: QVQLPESGPRLVKPSETLSLTCSVSGESISSGGYYWTWIRQHPGKGLEWIGNIFDTGSTHYSPSLKTRLTISIDTSKNQFYLRLNSATAADTAVYYCARVGYSLETDRPYYFGLDVWGQGTTVTVSS
VL: DIVMTQSPLSLPVTPGEPASISCRSSQSLLHSNGYTYLDWYLQKPGQSPQLLIYLASNRASGVPDRFSGSGSGTYFTLKISRVEAEDVGVYYCMQAVQTPWTFGQGTKVEIK
binds: [1] | [2] | [3]

B2: NCS.1.1 (human IgG1) (antibody, V domains shown)
VH: QVQLQESGPRLVKPSETLSLTCSVSGESISSGGYYWTWIRQHPGKGLEWIGNIFDTGSTDYSPSLKTRLTISIDTSKNQFYLRLNSATAADTAVYYCARVGFSLETDRPYYLGLDVWGQGTTVTVSS
VL: DIVMTQSPLSLPVTPGEPASISCRSSQSLLHSNGYTYLDWYLQKPGQSPQLLISFTSNRASGVPDRFSGSGSGTYFTLKISRVEAEDVGVYYCMQAVQTPWTFGQGTKVEIK
binds: [1] | [2] | [3]

B3: NCS.1.3 (human IgG1) (antibody, V domains shown)
VH: QVQLQESGPRLVKPSETLSLTCSVSGESISSGGYYWTWIRQHPGKGLEWIGNIFDTGSTDYSPSLKTRLTISIDTSKNQFYLRLTSATAADTAVYYCARVGFSLETDRPYYLGLDVWGQGTTVTVSS
VL: DIVMTQSPLTLPVTPGEPASISCRSSQSLLHSNGYTYLDWYLQKPGQSPQLLIYFASNRASGVPDRFSGSGSGTYFTLKISRVEAEDVGVYYCMQAVQSPWTFGQGTKVEIK
binds: [1] | [2] | [3]
